Test results from patent US20250197501A1 (DEVELOPMENT CENTER FOR BIOTECHNOLOGY, published 2025).
Where two headings read alike, the source gives them in different places.

Legend:
[1] = biological target: T1, recombinant human B7-H3-mFc protein (human, UniProt Q5ZPR3 29-466); test: SPR; MMAE conjugate, not parental mAb
T1 construct: also called B7-H3 protein; not shown: mouse Fc domain
T1 sequence: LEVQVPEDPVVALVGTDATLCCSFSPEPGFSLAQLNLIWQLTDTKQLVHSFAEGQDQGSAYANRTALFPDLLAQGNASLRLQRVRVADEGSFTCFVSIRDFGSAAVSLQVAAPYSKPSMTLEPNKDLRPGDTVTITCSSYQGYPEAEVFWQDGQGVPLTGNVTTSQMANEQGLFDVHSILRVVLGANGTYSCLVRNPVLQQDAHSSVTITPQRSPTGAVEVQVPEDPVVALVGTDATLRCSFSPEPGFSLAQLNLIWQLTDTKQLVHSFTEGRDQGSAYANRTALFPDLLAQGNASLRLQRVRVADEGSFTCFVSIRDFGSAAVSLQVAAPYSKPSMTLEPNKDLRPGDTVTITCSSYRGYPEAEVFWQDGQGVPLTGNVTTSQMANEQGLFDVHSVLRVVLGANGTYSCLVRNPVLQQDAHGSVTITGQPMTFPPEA
Method: The binding kinetics of the present antibodies against human B7-H3 were determined by Biacore™ assay. Carboxymethylated dextran biosensor chips (CM5) were activated according to the supplier's instructions. Anti-human IgG (Fc) was diluted with immobilization buffer before injection at a flow rate of 10 μL/minute to achieve approximately 10,000 response units (RU) of coupled protein followed by the injection of 1 M ethanolamine to block unreacted groups. Human anti-B7-H3 antibodies were captured on anti-human IgG chip. For kinetics measurements, two-fold serial dilutions of human B7-H3-mFc protein (from 40 nM to 0.3125 nM) were injected in HBS-EP⁺ Biacore™ running buffer provided by the manufacturer at a flow rate of 30 μL/min.

[2] = biological target: T2, human B7-H3 on the surface of human cancer cells (human, UniProt Q5ZPR3 29-534); test: cell-based or functional assay
T2 sequence: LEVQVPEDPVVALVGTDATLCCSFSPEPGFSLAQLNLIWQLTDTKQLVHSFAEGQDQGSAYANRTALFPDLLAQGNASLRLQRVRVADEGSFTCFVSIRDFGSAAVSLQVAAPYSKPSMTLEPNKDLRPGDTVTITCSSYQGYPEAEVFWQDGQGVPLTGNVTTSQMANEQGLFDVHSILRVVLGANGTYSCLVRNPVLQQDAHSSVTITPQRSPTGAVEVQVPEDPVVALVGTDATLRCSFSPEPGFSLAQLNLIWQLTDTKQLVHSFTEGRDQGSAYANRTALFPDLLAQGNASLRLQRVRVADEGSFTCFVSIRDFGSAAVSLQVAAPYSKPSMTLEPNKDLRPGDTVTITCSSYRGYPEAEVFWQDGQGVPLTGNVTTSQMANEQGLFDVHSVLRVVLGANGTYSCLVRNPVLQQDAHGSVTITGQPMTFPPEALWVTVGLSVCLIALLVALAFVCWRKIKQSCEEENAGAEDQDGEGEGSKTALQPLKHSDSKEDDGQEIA

[3] = biological target: T1, recombinant human B7-H3-mFc protein; test: ELISA, plate coated with human B7-H3-mFc
Method: (§1) The binding affinity of full-length antibodies to human, monkey, mouse and rat B7-H3 were evaluated by ELISA. In brief, 96-well plate was coated with B7-H3 proteins (i.e., human B7-H3-mFc protein, cynomolgus monkey B7-H3 protein or rat B7-H3 Fc chimeric protein) in coating buffer and incubated overnight at 4° C. After washing with PBS for 3 times, the 96-well plate was inverted and tapped on clean absorbent papers to remove excess liquid. The blocking buffer (PBS containing 1% bovine serum albumin (BSA) was added to the wells, followed by incubating the plate at 37° C. for 1 hour with gentle continual shaking. After washing with PBS for 3 times, serial dilutions of anti-B7-H3 antibody (in PBS containing 1% BSA) were added into the wells. The plate was incubated at 37° C. for 1 hour with gentle continual shaking. After washing with PBS for 3 times, the secondary antibody (peroxidase-conjugated AffiniPure™ F(ab′)₂ fragment goat anti-human IgG (H+L)) was added into the wells and then incubated at 37° C. for 1 hour with gentle continual shaking. The plate was washed with PBS for 3 times, and the TMB substrate was added into each well and incubated at room temperature for 5 minutes, avoiding from light. 1 N HCl stop solution was added into each well and the absorbance was measured at 450/650 nm. The binding affinity value (EC50) of antibodies was determined by software.

[4] = biological target: T3, recombinant rat B7-H3-mFc protein (rat, UniProt Q7TPB4 29-244); test: ELISA, plate coated with rat B7-H3 mFc
T3 construct: also called rat B7-H3 mFc chimeric protein; rat B7-H3 Fc chimeric protein; not shown: mouse Fc domain
T3 sequence: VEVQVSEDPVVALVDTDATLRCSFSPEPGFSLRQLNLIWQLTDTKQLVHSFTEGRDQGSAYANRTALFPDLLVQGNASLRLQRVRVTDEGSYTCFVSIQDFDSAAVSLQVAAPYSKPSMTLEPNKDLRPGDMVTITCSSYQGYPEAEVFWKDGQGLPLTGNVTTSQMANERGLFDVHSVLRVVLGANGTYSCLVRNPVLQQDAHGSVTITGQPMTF
Method: as §1

B7-H4 = biological target: T4, B7-H4; test: ELISA on the named B7 family protein (Example 1.1), A450 readout; antibody concentration not given
T4 construct: Member of the group m9
T4 chain: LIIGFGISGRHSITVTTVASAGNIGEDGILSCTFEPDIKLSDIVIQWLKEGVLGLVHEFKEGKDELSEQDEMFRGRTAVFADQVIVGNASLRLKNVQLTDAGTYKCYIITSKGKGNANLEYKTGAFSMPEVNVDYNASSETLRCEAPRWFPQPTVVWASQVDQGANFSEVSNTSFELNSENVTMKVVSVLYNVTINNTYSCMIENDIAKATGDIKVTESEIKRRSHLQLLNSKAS

B7-H1 = test: as above
B7-H6 = biological target: T5, B7-H6; test: as above
T5 chain: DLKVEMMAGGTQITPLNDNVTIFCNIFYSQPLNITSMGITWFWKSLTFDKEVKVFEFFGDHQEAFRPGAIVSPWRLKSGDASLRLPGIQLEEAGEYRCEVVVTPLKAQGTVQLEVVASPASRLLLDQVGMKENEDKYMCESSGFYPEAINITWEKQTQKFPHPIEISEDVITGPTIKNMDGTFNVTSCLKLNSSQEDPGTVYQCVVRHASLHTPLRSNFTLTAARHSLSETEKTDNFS

B7-H7 = biological target: T6, B7-H7; test: as above
T6 chain: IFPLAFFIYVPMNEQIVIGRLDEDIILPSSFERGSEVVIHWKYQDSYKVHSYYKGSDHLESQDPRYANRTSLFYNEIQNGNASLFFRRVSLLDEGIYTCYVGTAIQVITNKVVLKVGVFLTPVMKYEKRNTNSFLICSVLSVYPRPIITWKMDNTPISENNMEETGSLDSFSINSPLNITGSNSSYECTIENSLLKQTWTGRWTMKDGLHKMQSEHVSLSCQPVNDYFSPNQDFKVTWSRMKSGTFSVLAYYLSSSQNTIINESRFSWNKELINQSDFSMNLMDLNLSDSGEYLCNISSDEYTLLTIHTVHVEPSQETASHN

B7-H2 = biological target: T7, B7-H2; test: as above
T7 chain: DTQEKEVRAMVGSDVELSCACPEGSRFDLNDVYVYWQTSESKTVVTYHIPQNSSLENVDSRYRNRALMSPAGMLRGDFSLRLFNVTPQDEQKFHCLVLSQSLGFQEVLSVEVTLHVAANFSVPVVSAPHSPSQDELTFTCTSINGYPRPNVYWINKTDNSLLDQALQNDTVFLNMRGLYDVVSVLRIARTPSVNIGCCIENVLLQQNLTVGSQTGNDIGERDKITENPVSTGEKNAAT

[5] = biological target: T1, recombinant human B7-H3-mFc protein; test: SPR (Biacore), antibody captured on anti-human IgG chip, B7-H3 protein injected
[6] = biological target: T8, recombinant mouse B7-H3-mFc protein (mouse, UniProt Q8VE98 29-244); test: as above
T8 construct: not shown: mouse Fc domain
T8 sequence: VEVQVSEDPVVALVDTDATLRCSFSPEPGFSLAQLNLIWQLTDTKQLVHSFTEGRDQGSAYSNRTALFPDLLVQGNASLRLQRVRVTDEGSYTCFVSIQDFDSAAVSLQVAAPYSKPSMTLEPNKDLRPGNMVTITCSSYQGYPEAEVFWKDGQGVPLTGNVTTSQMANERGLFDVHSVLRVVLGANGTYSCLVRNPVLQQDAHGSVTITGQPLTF

[7] = biological target: T3, recombinant rat B7-H3-mFc protein; test: as above
[8] = biological target: T8, recombinant mouse B7-H3-mFc protein; test: ELISA, plate coated with mouse B7-H3 mFc
Method: as §1

[9] = biological target: T2, human B7-H3 on the surface of human …; test: cell-based or functional assay; remark: listed apart in the source
[10] = biological target: T9, recombinant cynomolgus monkey B7-H3 protein (cynomolgus monkey, UniProt Q7TPB4 26-248 (rat entry)); test: ELISA, plate coated with cynomolgus monkey B7-H3
T9 chain: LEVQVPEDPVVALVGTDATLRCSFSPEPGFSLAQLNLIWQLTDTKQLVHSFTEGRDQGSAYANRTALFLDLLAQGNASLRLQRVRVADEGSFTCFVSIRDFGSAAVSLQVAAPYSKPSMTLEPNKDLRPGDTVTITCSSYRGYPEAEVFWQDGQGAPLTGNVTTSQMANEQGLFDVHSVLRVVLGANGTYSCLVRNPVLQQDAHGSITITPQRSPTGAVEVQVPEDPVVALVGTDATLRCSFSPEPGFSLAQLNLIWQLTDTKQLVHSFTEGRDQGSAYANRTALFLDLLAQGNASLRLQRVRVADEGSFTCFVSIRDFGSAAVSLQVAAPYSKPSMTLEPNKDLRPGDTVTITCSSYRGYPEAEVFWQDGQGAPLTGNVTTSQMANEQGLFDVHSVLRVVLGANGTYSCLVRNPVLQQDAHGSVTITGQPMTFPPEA

B1: 91H06-MMAE (other)
VH: EVQLVESGGGLVQPGGSLRLSCAASGFTFSDYGMGWVRQAPGKGLEWVSSISWDSSSKEYADSVKGRFTISRDNSKNTLYLQMNSLRAEDTAVYYCARAWIAIIGGGAHFDYWGQGTLVTVSS
VL: DIQMTQSPSSLSASVGDRVTITCRASQSVSSHLAWYQQKPGKAPKLLIYLTSSLQSGVPSRFSGSGSGTDFTLTISSLQPEDFATYYCMQSKSLPFTFGQGTKVEIKR
modifications: MMAE linked through a PEG linker and a protease-sensitive valine-citrulline or glutamate-valine-citrulline linker to the azide-modified antibody (mAb-4 Azide, tri-mannosyl ADC platform); DAR between 3.5 and 3.9; attachment residue not stated
notes: also called the present ADC
Kd [1]: 0.24 nM | koff [1]: 0.000155 s⁻¹ | kon [1]: 643000 M⁻¹ s⁻¹ | Cytotoxicity activity (IC50, nM), CAL 27 cells [2]: < 50 nM | Cytotoxicity activity (IC50, nM), Detroit 562 cells [2]: < 50 nM | Cytotoxicity activity (IC50, nM), FaDu cells [2]: < 50 nM | Cytotoxicity activity (IC50, nM), LNCaP cells [2]: < 50 nM

B2: mAb 91H06 (antibody, V domains shown)
VH: EVQLVESGGGLVQPGGSLRLSCAASGFTFSDYGMGWVRQAPGKGLEWVSSISWDSSSKEYADSVKGRFTISRDNSKNTLYLQMNSLRAEDTAVYYCARAWIAIIGGGAHFDYWGQGTLVTVSS
VL: DIQMTQSPSSLSASVGDRVTITCRASQSVSSHLAWYQQKPGKAPKLLIYLTSSLQSGVPSRFSGSGSGTDFTLTISSLQPEDFATYYCMQSKSLPFTFGQGTKVEIKR
notes: Fully human, detected with anti-human IgG; also called antibody 91H06; anti-B7-H3 monoclonal antibody 91H06
EC50 [3]: 0.0186 nM | EC50 [4]: 0.0601 nM | binding result (B7-H4): no binding | binding result (B7-H1): no binding | binding result (B7-H6): no binding | binding result (B7-H7): no binding | binding result (B7-H2): no binding | Kd [5]: 0.227 nM | Kd [6]: 2.03 nM | kon [7]: 178000 M⁻¹ s⁻¹ | EC50 [8]: 0.0767 nM

B3: 91H06-MMAF (other)
VH: EVQLVESGGGLVQPGGSLRLSCAASGFTFSDYGMGWVRQAPGKGLEWVSSISWDSSSKEYADSVKGRFTISRDNSKNTLYLQMNSLRAEDTAVYYCARAWIAIIGGGAHFDYWGQGTLVTVSS
VL: DIQMTQSPSSLSASVGDRVTITCRASQSVSSHLAWYQQKPGKAPKLLIYLTSSLQSGVPSRFSGSGSGTDFTLTISSLQPEDFATYYCMQSKSLPFTFGQGTKVEIKR
modifications: MMAF linked through a PEG linker and a protease-sensitive valine-citrulline or glutamate-valine-citrulline linker to the azide-modified antibody (mAb-4 Azide, tri-mannosyl ADC platform); DAR between 3.5 and 3.9; attachment residue not stated
Cytotoxicity activity (IC50, nM), CAL 27 cells [9]: < 10 nM | Cytotoxicity activity (IC50, nM), Detroit 562 cells [9]: < 10 nM | Cytotoxicity activity (IC50, nM), FaDu cells [9]: < 10 nM | Cytotoxicity activity (IC50, nM), LNCaP cells [9]: < 10 nM

B4: Ifinatamab (antibody, V domains shown)
VH: QVQLVQSGAEVKKPGSSVKVSCKASGYTFTNYVMHWVRQAPGQGLEWMGYINPYNDDVKYNEKFKGRVTITADESTSTAYMELSSLRSEDTAVYYCARWGYYGSPLYYFDYWGQGTLVTVSS
VL: EIVLTQSPATLSLSPGERATLSCRASSRLIYMHWYQQKPGQAPRPLIYATSNLASGIPARFSGSGSGTDFTLTISSLEPEDFAVYYCQQWNSNPPTFGQGTKVEIK
EC50 [3]: 0.0356 nM | EC50 [10]: 0.127 nM
